# Measurements from patent publication US11357830B2, “Nano-scale delivery device and uses thereof” (The Regents of the University of California, priority 2016, dated 2022).
# Test system: Proteinase-K
# Test: Proteinase-K protection test of Beta Lactamase (BLA) preparations, Nitrocefin Assay (FIGS. 3B, 3C)
# Format: biochemical
# Details: PK overnight, 0.1 mg/ml in 1x PBS, 37° C.; 250 μg/ml nitrocefin, absorbance 486 nm
# Procedure: To verify enzyme encapsulation and activity, three separate preparations were incubated with and without Proteinase-K (PK). […] In this example, the three preparations were exposed to Proteinase-K (Thermo Scientific Pierce Proteinase K) enzyme overnight at a concentration of 0.1 mg/ml in 1× phosphate buffered saline (PBS) solution at 37° C. Enzyme activity assay was done on the samples post incubation with PK using a Nitrocefin Assay (BLA hydrolysis of nitrocefin produces a shift of UV absorption inside the visible light spectrum from intact nitrocefin (˜380 nm) to degraded nitrocefin (˜500 nm) allowing visual detection of BLA activity on a macroscopic level). Each reaction was 100 μl in total and contained 250 μg/ml nitrocefin as substrate. Absorbance was measured at 486 nm.
substance,measurement,value
Beta Lactamase (BLA) [bare unencapsulated enzyme],BLA enzyme activity when exposed to Proteinase-K (PK),loses all activity
